Source: patent publication US20070141662

Molecular target: CISNN116 (NT1-C3-hIL21) (UniProt Q9HBE4)
Sequence (Q9HBE4 other isoform, or with tags, fused parts or gaps): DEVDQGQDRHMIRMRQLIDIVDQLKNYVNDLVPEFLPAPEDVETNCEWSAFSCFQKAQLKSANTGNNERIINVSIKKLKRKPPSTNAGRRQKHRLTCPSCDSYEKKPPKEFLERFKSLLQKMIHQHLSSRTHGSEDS

Substance: Caspase 3
- completion of the proteolysis reaction (Maldi analysis), 1 hour at 37° C.: Maldi analysis showed 87% completion of the reaction
